Data from article PMC3820802, “Activin Signaling Targeted by Insulin/dFOXO Regulates Aging and Muscle Proteostasis in Drosophila”.

T1: Smox MH1 DNA-binding domain (UniProt O96660 1-140)
T1 sequence: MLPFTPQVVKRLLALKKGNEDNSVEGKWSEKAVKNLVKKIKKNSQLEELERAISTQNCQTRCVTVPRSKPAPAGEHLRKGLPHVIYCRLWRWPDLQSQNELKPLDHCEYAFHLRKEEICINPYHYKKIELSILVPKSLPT

B1: Atg8a-Mut2 (dsDNA)
DNA 1: CATATTAGCTACATACCATT
DNA 2: AATGGTATGTAGCTAATATG
B2: SBE (vertebrate Smad binding element) (dsDNA)
DNA 1: GTATGTCTAGACTGAA
DNA 2: TTCAGTCTAGACATAC
B3: Atg8a-Mut3 (dsDNA)
DNA 1: CATATTAGATAGATACCATT
DNA 2: AATGGTATCTATCTAATATG
B4: Atg8a probe (dsDNA)
DNA 1: CATATTAGACAGACACCATT
DNA 2: AATGGTGTCTGTCTAATATG

How the values were obtained:
[1] = target: T1, Smox MH1 DNA-binding domain; assay: competition; EMSA, cold competitor vs labeled N1; did not compete; 10 mM Tris-HCl pH 7.5, 150 mM KCl, 5 mM MgCl2, 10 ng/uL poly(dI-dC), ~50 ng probe, 20 ug protein in 10 uL, room temperature 20 min; 0.8% agarose, 0.5x TBE; details: protein: recombinant; tags: His6-HaloTag (pFN29K vector; purified with HaloTag kit, tag retention: called Halo-tagged in legend); (only one strand seen in the material)
[2] = target: T1, Smox MH1 DNA-binding domain; assay: EMSA; 10 mM Tris-HCl pH 7.5, 150 mM KCl, 5 mM MgCl2, 10 ng/uL poly(dI-dC), ~50 ng probe, 20 ug protein in 10 uL, room temperature 20 min; 0.8% agarose, 0.5x TBE; details: protein: recombinant; tags: His6-HaloTag (pFN29K vector; purified with HaloTag kit, tag retention: called Halo-tagged in legend); label: 3' biotin; (only one strand seen in the material)
[3] = target: T1, Smox MH1 DNA-binding domain; assay: EMSA; blocked by unlabeled wild-type probe; 10 mM Tris-HCl pH 7.5, 150 mM KCl, 5 mM MgCl2, 10 ng/uL poly(dI-dC), ~50 ng probe, 20 ug protein in 10 uL, room temperature 20 min; 0.8% agarose, 0.5x TBE; details: protein: recombinant; tags: His6-HaloTag (pFN29K vector; purified with HaloTag kit, tag retention: called Halo-tagged in legend); (only one strand seen in the material)

Row | Binder | binding result [1] | also measured
1 | B1 | no binding | –
2 | B2 | – | binding result [2]: binds
3 | B3 | no binding | –
4 | B4 | – | binding result [3]: binds
